From patent EP3443010B1
Several values for one entry are separate records, joined by “and”; a condition that tells them apart may be missing. Identical values can stand only once.

Target: recombinant hSIRPa (Sino Biologicals, reference 10975-H08H) (human) (UniProt P78324)
Assay: ELISA, hSIRPa (Sino 10975-H08H) coated at 0.5 ug/ml, anti-mouse Fc detection

recombinant hSIRPa (Sino Biologicals, reference 10975-H08H) (human), sequence (P78324 other isoform, or with tags, fused parts or gaps H08H H08H): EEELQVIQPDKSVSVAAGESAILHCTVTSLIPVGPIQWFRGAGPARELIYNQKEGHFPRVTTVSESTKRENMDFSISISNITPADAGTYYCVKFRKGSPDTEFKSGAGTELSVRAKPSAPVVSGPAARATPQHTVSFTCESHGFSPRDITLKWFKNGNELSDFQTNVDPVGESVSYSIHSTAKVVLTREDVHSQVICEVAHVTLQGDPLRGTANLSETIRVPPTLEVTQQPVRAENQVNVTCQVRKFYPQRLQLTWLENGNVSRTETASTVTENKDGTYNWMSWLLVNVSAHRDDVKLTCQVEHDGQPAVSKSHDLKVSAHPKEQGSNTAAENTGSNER

EC50: 0.16 nM and 0.024 µg/mL
Substance: SE5A5 (antibody)
